# Reference: US20170298119A1 (VISTERRA, published 2017)
# Like-named read-outs stand apart in the source and are kept apart here.
# Tests used:
# recombinant FcRn protein = target: T1, recombinant FcRn protein (Homo sapiens (Human), UniProt P55899 24-297; P61769 21-119); experiment: BLI (Octet): antibody on anti-CH1 biosensors, recombinant FcRn at pH 6.0; fold change against wild type Motavizumab
# T1 construct: also called neonatal Fc receptor; copies: 1 + 1
# [1] = target: T2, wild type ZIKV EDIII displayed on yeast (yeast; Zika virus); experiment: yeast display of wild type ZIKV EDIII, flow cytometry (Alexa-647 MFI) over hybridoma supernatant dilutions; KD from the 50% maximal binding dilution and the Octet-quantified supernatant concentration
# T2 construct: also called WT EDIII
# DENV EDIII protein = target: T3, DENV EDIII protein (dengue virus, UniProt P17763 573-679); experiment: ELISA of Example 7 on coated DENV EDIII, where p-1318 says 'minimal cross-reactivity with the DENV EDIII protein'
# T3 construct: domain: EDIII; also called EDIII-DV1; dengue virus E protein domain III
# [2] = target: T2, wild type ZIKV EDIII displayed on yeast
# T1 sequence (P55899 24-297 limits assumed, chain 1 of 2): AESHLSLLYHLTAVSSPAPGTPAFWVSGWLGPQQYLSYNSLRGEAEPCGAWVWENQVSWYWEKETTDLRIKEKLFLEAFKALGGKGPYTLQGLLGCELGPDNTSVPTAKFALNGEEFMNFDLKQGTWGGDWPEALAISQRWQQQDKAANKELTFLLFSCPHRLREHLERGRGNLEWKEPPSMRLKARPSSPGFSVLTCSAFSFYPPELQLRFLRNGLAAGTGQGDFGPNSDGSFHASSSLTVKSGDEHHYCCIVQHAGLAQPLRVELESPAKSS
# T1 sequence (P61769 21-119 limits assumed, chain 2 of 2): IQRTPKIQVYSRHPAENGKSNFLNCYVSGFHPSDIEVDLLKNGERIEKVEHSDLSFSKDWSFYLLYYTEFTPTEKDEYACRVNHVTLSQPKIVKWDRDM
# T2 sequence (P32781 19-87): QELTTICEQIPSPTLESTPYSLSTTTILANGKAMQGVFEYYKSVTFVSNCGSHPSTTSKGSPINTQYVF
# T3 sequence (P17763 573-679 limits assumed): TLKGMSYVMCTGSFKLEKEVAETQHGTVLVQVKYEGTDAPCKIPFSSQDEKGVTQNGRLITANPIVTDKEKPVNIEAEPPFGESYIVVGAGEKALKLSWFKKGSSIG
Binder,Kd (fold increase) (recombinant FcRn protein) [fold],koff (fold decrease) (recombinant FcRn protein) [fold],kon (fold increase) (recombinant FcRn protein) [fold],Kd [1] [nM],binding result (DENV EDIII protein),Kd [2] [nM]
FcMut186 (antibody) ASTKGPSVFPLAPSSKSTSGGTAALGCLVKDYFPEPVTVSWNSGALTSGVHTFPAVLQSSGLYSLSSVVTVPSSSLGTQTYICNVNHKPSNTKVDKKVEPKSCDKTHTCPPCPAPELLGGPSVFLFPPKPKDTLMISRDPEVTCVVVDVSHEDPEVKFNWYVDGVEVHNAKTKPREEQYNSTYRVVSVLRVLHVDWLNGKEYKCKVSNKALPAPIEKTISKAKGQPREPQVYTLPPSRDELTKNQVSLTCLVKGFYPSDIVVEWESNGQPENNYKTTPPVLDSDGSFFLYSKLTVDKSRWQQGNVFSCSVMHEALHNHYTQKSLSLSPGK,10.3,3.5,2.7,–,–,–
FcMut171 (antibody) ASTKGPSVFPLAPSSKSTSGGTAALGCLVKDYFPEPVTVSWNSGALTSGVHTFPAVLQSSGLYSLSSVVTVPSSSLGTQTYICNVNHKPSNTKVDKKVEPKSCDKTHTCPPCPAPELLGGPSVFLFPPKPKDTLMISRDPEVTCVVVDVSHEDPEVKFNWYVDGVEVHDAKTKPREEQYNSTYRVVSVLRVLHVDWLNGKEYKCKVSNKALPAPIEKTISKAKGQPREPQVYTLPPSRDELTKNQVSLTCLVKGFYPSDIAVEWESNGQPENNYKTTPPVLDSDGSFFLYSKLTVDKSRWQQGNVFSCSVMHEALHNHYTQKSLSLSPGK,8.2,3.5,2,–,–,–
FcMut229 (antibody) ASTKGPSVFPLAPSSKSTSGGTAALGCLVKDYFPEPVTVSWNSGALTSGVHTFPAVLQSSGLYSLSSVVTVPSSSLGTQTYICNVNHKPSNTKVDKKVEPKSCDKTHTCPPCPAPELLGGPSVFLFPPKPKDTLMISRDPEVTCVVVDVSHEDPEVKFNWYVDGVEVDNAKTKPREEQYNSTYRVVSVLRVLHVDWLNGKEYKCKVSNKALPAPIEKTISKAKGQPREPQVYTLPPSRDELTKNQVSLTCLVKGFYPSDIVVEWESNGQPENNYKTTPPVLDSDGSFFLYSKLTVDKSRWQQGNVFSCSVMHEALHNHYTQKSLSLSPGK,5.6,4.3,1.1,–,–,–
"ZV-67 (antibody, V domains shown) VH: QVQLQQSGTGLARPGASVKLSCKASGYTFTSYGISWVTQRAGQGLEWIGVIYPRSGNTYYNEKFRGKATLTADKSSSSAYMELRGLTAEDSAVYFCARENYGSVYWGQGTTLTVSS VL: DIVMTQSQKFMSTSVGDRVSITCKASQNVGTAVAWYQQKPGQSPKLLIYSASNRYTGVPDRFTGSGSGTDFTLTISNMQSEDLADYFCQQFSSYPYTFGGGTKLEIK",–,–,–,0.65,–,–
"ZV-54 (antibody, V domains shown, also called ZWT; Rec54) VH: QVQLQQSGVGLARPGTSVKLSCKASGYSFTTYGISWVTQRPGQGLEWIGVIYPRSNNTYYNERFRGKATLTADKSSSSAYLELRGLTAEDSAVYFCARENYGSVYWGQGTTLTVSS VL: DIVMTQSQKFMSTSVGDRVTITCKASQSVGTAVAWYHQKPGQSPKLLIYSASNRYTGVPDRFTGSGSGTDFTLTITYMQSEDLADYFCQQFSNYPFTFGGGTKLEIK",–,–,–,–,no binding,0.74
